Results as given in patent US20070060522A1 (ENSION, published 2007).

How the values were obtained:
[1] = molecular target: T1, CD54 (ICAM-1) on A375 human melanoma cells (human, UniProt P05362 28-532); test: inferred from peptide blocking of monocyte/tumor cell adherence
T1 construct: whole, on cells; also called intercellular adhesion molecule-1

[2] = molecular target: αMβ2 (Mac-1; CD11b/CD18) on human peripheral blood monocytes (human, UniProt P11215 17-1152; P05107 23-769); test: inferred from peptide blocking of monocyte/A375 adherence under flow
Protocol: Pre-treatment of tumor cells with P1 and monocytes with sFn or tumor cells with sFn and monocytes with P2 inhibited adherence to a similar level to that of sFn treatment of both cells (P>0.05 to fibrin; n=5 in each case).
Peptide Blocking of Cellular Adherence: After fluorescence labeling of each cell type, stock peptides were added to both confluent coverslips and/or 1 milliliter suspensions of monocytes (P1 and P2) and/or sFn solution (P3 and P4) for a final treatment concentration of 4 mM (4 uL added to 1 mL suspension). Cells were treated with peptides for 20 minutes at room temperature, followed directly by washing of cells (by centrifugation and resuspension—monocytes, or perfusion with RPMI 1640 for 10 min—tumor cells). For sFn peptide treatment, peptides remained in the sFn solution during incubation. Monocyte adherence to tumor cells under flow conditions was then performed as described above.

T1 sequence (P05362 28-532): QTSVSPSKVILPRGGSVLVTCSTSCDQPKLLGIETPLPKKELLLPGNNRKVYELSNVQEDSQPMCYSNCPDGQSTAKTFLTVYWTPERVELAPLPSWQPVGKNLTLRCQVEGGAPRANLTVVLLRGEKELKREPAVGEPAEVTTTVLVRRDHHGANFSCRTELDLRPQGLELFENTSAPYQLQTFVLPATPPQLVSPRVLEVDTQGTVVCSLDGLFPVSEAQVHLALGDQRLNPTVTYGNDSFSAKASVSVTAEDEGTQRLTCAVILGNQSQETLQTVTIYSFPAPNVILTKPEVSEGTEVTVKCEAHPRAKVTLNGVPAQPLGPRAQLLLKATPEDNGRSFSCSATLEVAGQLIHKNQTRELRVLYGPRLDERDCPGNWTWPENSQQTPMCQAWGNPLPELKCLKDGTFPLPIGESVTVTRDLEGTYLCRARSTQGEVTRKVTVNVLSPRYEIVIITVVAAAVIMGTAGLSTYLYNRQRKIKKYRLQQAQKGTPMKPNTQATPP

| binding result [1] | binding result [2] | Binder |
| --- | --- | --- |
| binds | – | NNQKIVNLKEKVAQLEA (Synthetic peptide (Sigma-Genosys, 50% purity)) [Peptide 1 (P1), NNQKIVNLKEKVAQLEA] |
| – | binds | YKSMKKTTMKIIPFNRLTIF (Synthetic peptide) [Peptide 2 (P2), YKSMKKTTMKIIPFNRLTIF] |
